Patent US10584350B2, “Structurally modified COI1” (Board of Trustees of Michigan State University, priority 2016, dated 2020)

Tested on: COI1-JAZ9 interaction
Assay: Y2H assays on plates for protein-protein interaction
Type: cell-based, Arabidopsis
Conditions: 10 μM COR, yeast
Protocol: Yeast EGY48 strain carrying the p8Op:LacZ reporter plasmid was co-transformed with pGilda:COI1 (or COI1 mutants) and pB42AD:JAZ9 (or other JAZs) (Clontech). Colonies were selected on SD minimal plates (BD Biosciences) supplemented with the—uracil (U)/-tryptophan (W)/-histidine (H) amino acid drop out solution (Clontech). Yeast colonies were cultured overnight in liquid SD-UWH medium, harvested, washed twice in sterile water, and the absorbance (OD600) of the cultures was adjusted to 0.2 in liquid SD galactose/raffinose-UWH medium (BD Biosciences).
For Y2H assays on plates, 10-μL culture was spotted onto SD galactose/raffinose-UWH plates with 80 μg/mL X-gal and 10 μM COR (Sigma-Aldrich). Blue color indicated protein-protein interactions after 5-7 days of incubation at 30° C.

Row | Molecule | COR-dependent COI1-JAZ9 interaction | other results
1 | Y302A: COI1 alanine substitution mutant at Y302 (protein) MEDPDIKRCKLSCVATVDDVIEQVMTYITDPKDRDSASLVCRRWFKIDSETREHVTMALCYTATPDRLSRRFPNLRSLKLKGKPRAAMFNLIPENWGGYVTPWVTEISNNLRQLKSVHFRRMIVSDLDLDRLAKARADDLETLKLDKCSGFTTDGLLSIVTHCRKIKTLLMEESSFSEKDGKWLHELAQHNTSLEVLNFYMTEFAKISPKDLETIARNCRSLVSVKVGDFEILELVGFFKAAANLEEFCGGSLNEDIGMPEKYMNLVFPRKLCRLGLSYMGPNEMPILFPFAAQIRKLDLLAALLETEDHCTLIQKCPNLEVLETRNVIGDRGLEVLAQYCKQLKRLRIERGADEQGMEDEEGLVSQRGLIALAQGCQELEYMAVYVSDITNESLESIGTYLKNLCDFRLVLLDREERITDLPLDNGVRSLLIGCKKLRRFAFYLRQGGLTDLGLSYIGQYSPNVRWMLLGYVGESDEGLMEFSRGCPNLQKLEMRGCCFSERAIAAAVTKLPSLRYLWVQGYRASMTGQDLMQMARPYWNIELIPSRRVPEVNQQGEIREMEHPAHILAYYSLAGQRTDCPTTVRVLKEPI | disrupted | COR-dependent COI1-JAZ9 interaction (listed as Y302): reduced
2 | R326A: COI1 alanine substitution mutant at R326 (protein) MEDPDIKRCKLSCVATVDDVIEQVMTYITDPKDRDSASLVCRRWFKIDSETREHVTMALCYTATPDRLSRRFPNLRSLKLKGKPRAAMFNLIPENWGGYVTPWVTEISNNLRQLKSVHFRRMIVSDLDLDRLAKARADDLETLKLDKCSGFTTDGLLSIVTHCRKIKTLLMEESSFSEKDGKWLHELAQHNTSLEVLNFYMTEFAKISPKDLETIARNCRSLVSVKVGDFEILELVGFFKAAANLEEFCGGSLNEDIGMPEKYMNLVFPRKLCRLGLSYMGPNEMPILFPFAAQIRKLDLLYALLETEDHCTLIQKCPNLEVLETANVIGDRGLEVLAQYCKQLKRLRIERGADEQGMEDEEGLVSQRGLIALAQGCQELEYMAVYVSDITNESLESIGTYLKNLCDFRLVLLDREERITDLPLDNGVRSLLIGCKKLRRFAFYLRQGGLTDLGLSYIGQYSPNVRWMLLGYVGESDEGLMEFSRGCPNLQKLEMRGCCFSERAIAAAVTKLPSLRYLWVQGYRASMTGQDLMQMARPYWNIELIPSRRVPEVNQQGEIREMEHPAHILAYYSLAGQRTDCPTTVRVLKEPI | disrupted | COR-dependent COI1-JAZ9 interaction (listed as R326): reduced
3 | Y444A: COI1 alanine substitution mutant at Y444 (protein) MEDPDIKRCKLSCVATVDDVIEQVMTYITDPKDRDSASLVCRRWFKIDSETREHVTMALCYTATPDRLSRRFPNLRSLKLKGKPRAAMFNLIPENWGGYVTPWVTEISNNLRQLKSVHFRRMIVSDLDLDRLAKARADDLETLKLDKCSGFTTDGLLSIVTHCRKIKTLLMEESSFSEKDGKWLHELAQHNTSLEVLNFYMTEFAKISPKDLETIARNCRSLVSVKVGDFEILELVGFFKAAANLEEFCGGSLNEDIGMPEKYMNLVFPRKLCRLGLSYMGPNEMPILFPFAAQIRKLDLLYALLETEDHCTLIQKCPNLEVLETRNVIGDRGLEVLAQYCKQLKRLRIERGADEQGMEDEEGLVSQRGLIALAQGCQELEYMAVYVSDITNESLESIGTYLKNLCDFRLVLLDREERITDLPLDNGVRSLLIGCKKLRRFAFALRQGGLTDLGLSYIGQYSPNVRWMLLGYVGESDEGLMEFSRGCPNLQKLEMRGCCFSERAIAAAVTKLPSLRYLWVQGYRASMTGQDLMQMARPYWNIELIPSRRVPEVNQQGEIREMEHPAHILAYYSLAGQRTDCPTTVRVLKEPI | disrupted | COR-dependent COI1-JAZ9 interaction (listed as Y444): reduced
4 | F89: COI1 alanine substitution mutant at F89 (protein, UniProt O04197 1-592, looked up, variant F89A) Coronatine-insensitive …: MEDPDIKRCKLSCVATVDDVIEQVMTYITDPKDRDSASLVCRRWFKIDSETREHVTMALCYTATPDRLSRRFPNLRSLKLKGKPRAAMANLIPENWGGYVTPWVTEISNNLRQLKSVHFRRMIVSDLDLDRLAKARADDLETLKLDKCSGFTTDGLLSIVTHCRKIKTLLMEESSFSEKDGKWLHELAQHNTSLEVLNFYMTEFAKISPKDLETIARNCRSLVSVKVGDFEILELVGFFKAAANLEEFCGGSLNEDIGMPEKYMNLVFPRKLCRLGLSYMGPNEMPILFPFAAQIRKLDLLYALLETEDHCTLIQKCPNLEVLETRNVIGDRGLEVLAQYCKQLKRLRIERGADEQGMEDEEGLVSQRGLIALAQGCQELEYMAVYVSDITNESLESIGTYLKNLCDFRLVLLDREERITDLPLDNGVRSLLIGCKKLRRFAFYLRQGGLTDLGLSYIGQYSPNVRWMLLGYVGESDEGLMEFSRGCPNLQKLEMRGCCFSERAIAAAVTKLPSLRYLWVQGYRASMTGQDLMQMARPYWNIELIPSRRVPEVNQQGEIREMEHPAHILAYYSLAGQRTDCPTTVRVLKEPI | reduced | 
5 | L91: COI1 alanine substitution mutant at L91 (protein, UniProt O04197 1-592, looked up, variant L91A) Coronatine-insensitive …: MEDPDIKRCKLSCVATVDDVIEQVMTYITDPKDRDSASLVCRRWFKIDSETREHVTMALCYTATPDRLSRRFPNLRSLKLKGKPRAAMFNAIPENWGGYVTPWVTEISNNLRQLKSVHFRRMIVSDLDLDRLAKARADDLETLKLDKCSGFTTDGLLSIVTHCRKIKTLLMEESSFSEKDGKWLHELAQHNTSLEVLNFYMTEFAKISPKDLETIARNCRSLVSVKVGDFEILELVGFFKAAANLEEFCGGSLNEDIGMPEKYMNLVFPRKLCRLGLSYMGPNEMPILFPFAAQIRKLDLLYALLETEDHCTLIQKCPNLEVLETRNVIGDRGLEVLAQYCKQLKRLRIERGADEQGMEDEEGLVSQRGLIALAQGCQELEYMAVYVSDITNESLESIGTYLKNLCDFRLVLLDREERITDLPLDNGVRSLLIGCKKLRRFAFYLRQGGLTDLGLSYIGQYSPNVRWMLLGYVGESDEGLMEFSRGCPNLQKLEMRGCCFSERAIAAAVTKLPSLRYLWVQGYRASMTGQDLMQMARPYWNIELIPSRRVPEVNQQGEIREMEHPAHILAYYSLAGQRTDCPTTVRVLKEPI | reduced | 
6 | R121: COI1 alanine substitution mutant at R121 (protein, UniProt O04197 1-592, looked up, variant R121A) Coronatine-insensitive …: MEDPDIKRCKLSCVATVDDVIEQVMTYITDPKDRDSASLVCRRWFKIDSETREHVTMALCYTATPDRLSRRFPNLRSLKLKGKPRAAMFNLIPENWGGYVTPWVTEISNNLRQLKSVHFRAMIVSDLDLDRLAKARADDLETLKLDKCSGFTTDGLLSIVTHCRKIKTLLMEESSFSEKDGKWLHELAQHNTSLEVLNFYMTEFAKISPKDLETIARNCRSLVSVKVGDFEILELVGFFKAAANLEEFCGGSLNEDIGMPEKYMNLVFPRKLCRLGLSYMGPNEMPILFPFAAQIRKLDLLYALLETEDHCTLIQKCPNLEVLETRNVIGDRGLEVLAQYCKQLKRLRIERGADEQGMEDEEGLVSQRGLIALAQGCQELEYMAVYVSDITNESLESIGTYLKNLCDFRLVLLDREERITDLPLDNGVRSLLIGCKKLRRFAFYLRQGGLTDLGLSYIGQYSPNVRWMLLGYVGESDEGLMEFSRGCPNLQKLEMRGCCFSERAIAAAVTKLPSLRYLWVQGYRASMTGQDLMQMARPYWNIELIPSRRVPEVNQQGEIREMEHPAHILAYYSLAGQRTDCPTTVRVLKEPI | reduced | 
7 | E173: COI1 alanine substitution mutant at E173 (protein, UniProt O04197 1-592, looked up, variant E173A) Coronatine-insensitive …: MEDPDIKRCKLSCVATVDDVIEQVMTYITDPKDRDSASLVCRRWFKIDSETREHVTMALCYTATPDRLSRRFPNLRSLKLKGKPRAAMFNLIPENWGGYVTPWVTEISNNLRQLKSVHFRRMIVSDLDLDRLAKARADDLETLKLDKCSGFTTDGLLSIVTHCRKIKTLLMEASSFSEKDGKWLHELAQHNTSLEVLNFYMTEFAKISPKDLETIARNCRSLVSVKVGDFEILELVGFFKAAANLEEFCGGSLNEDIGMPEKYMNLVFPRKLCRLGLSYMGPNEMPILFPFAAQIRKLDLLYALLETEDHCTLIQKCPNLEVLETRNVIGDRGLEVLAQYCKQLKRLRIERGADEQGMEDEEGLVSQRGLIALAQGCQELEYMAVYVSDITNESLESIGTYLKNLCDFRLVLLDREERITDLPLDNGVRSLLIGCKKLRRFAFYLRQGGLTDLGLSYIGQYSPNVRWMLLGYVGESDEGLMEFSRGCPNLQKLEMRGCCFSERAIAAAVTKLPSLRYLWVQGYRASMTGQDLMQMARPYWNIELIPSRRVPEVNQQGEIREMEHPAHILAYYSLAGQRTDCPTTVRVLKEPI | reduced | 
8 | R348: COI1 alanine substitution mutant at R348 (protein, UniProt O04197 1-592, looked up, variant R348A) Coronatine-insensitive …: MEDPDIKRCKLSCVATVDDVIEQVMTYITDPKDRDSASLVCRRWFKIDSETREHVTMALCYTATPDRLSRRFPNLRSLKLKGKPRAAMFNLIPENWGGYVTPWVTEISNNLRQLKSVHFRRMIVSDLDLDRLAKARADDLETLKLDKCSGFTTDGLLSIVTHCRKIKTLLMEESSFSEKDGKWLHELAQHNTSLEVLNFYMTEFAKISPKDLETIARNCRSLVSVKVGDFEILELVGFFKAAANLEEFCGGSLNEDIGMPEKYMNLVFPRKLCRLGLSYMGPNEMPILFPFAAQIRKLDLLYALLETEDHCTLIQKCPNLEVLETRNVIGDRGLEVLAQYCKQLKRLAIERGADEQGMEDEEGLVSQRGLIALAQGCQELEYMAVYVSDITNESLESIGTYLKNLCDFRLVLLDREERITDLPLDNGVRSLLIGCKKLRRFAFYLRQGGLTDLGLSYIGQYSPNVRWMLLGYVGESDEGLMEFSRGCPNLQKLEMRGCCFSERAIAAAVTKLPSLRYLWVQGYRASMTGQDLMQMARPYWNIELIPSRRVPEVNQQGEIREMEHPAHILAYYSLAGQRTDCPTTVRVLKEPI | reduced | 
